Data: publication PMC4989918

Experiments:
[1] = biological target: Mb(BgaD_L19) displayed on yeast; assay: flow cytometry on cells
[2] = biological target: Mb(BgaD_L23) displayed on yeast; assay: flow cytometry on cells
[3] = biological target: Mb(BgaD_L14), purified monobody; assay: bead-based binding assay read by flow cytometry

B1: BgaD-D, β-galactosidase from Bacillus circulans ATCC 31382 (residues 36–847), biotinylated (enzyme)
chain: GNSVSYDGERRVNFNENWRFQRETNGSIAGAQNPGFDDSSWRKLNLPHDWSIELDFNKNSLATHEGGYLDGGIGWYRKTFTIPESMKGKRISLDFDGVYMNSTTYLNGEVLGTYPFGYNAFSYDISDKLYKDGRANVLVVKVNNTQPSSRWYSGSGIYRNVYLTVTDPIHVARYGTFVTTPNLEKSIKEDRADVNIKTKISNDAAEAKQVKIKSTIYDGAGNTVQTVETEEKTAAAGTVTPFEQNTVIKQPKLWSIDKPYRYNLVTEVIVGGQTVDTYETKFGVRYFKFDENEGFSLNGEYMKLHGVSMHHDLGALGAATNARGVERQMQIMKDMGVNAIRVTHNPASPELLEAANKLGLFIIEEAFDSWAQSKKPYDYGRFFNAWAEHDIKEMVDRGKNEPAIIMWSIGNEIYDTTNAAGVETARNLVGWVKEIDTTRPTTIGEDKTRGDKVNVTPINSYIKEIFNIVDVVGLNYSENNYDGYHKQNPSWKLYGSETSSATRSRGVYTHPYQYNQSTKYADLQQSSYDNDYVGWGRTAEDAWKYDRDLKHIAGQFIWTGFDYIGEPTPYYNSYPAKSSYFGAVDTAGFPKDIFYYYQSQWKKEPMVHLLPHWNWKEGEKVRVLAYTNASKVELVLNGESLGEKNYDNKQTSWGAPYKETKDGKTYLEWAVPFKPGKLEAVAKDENGKVIARDQVVTAGEPASVRLTADRKVVKADGTDLSFITADIVDSKGIVVPDADHLITFNVTGQGELAGVDNGNASSVERYKDNKRKAFSGKALAIVQSSKLSGKITVHASVAGLSSDSTSVFTVTP
modifications: biotin on the biotin-acceptor tag (in vivo biotinylation)
[1]
  Kd: 600 nM
[2]
  Kd: 12 nM
[3]
  Kd: 31 nM
